Key:
tocilizumab [1] = assay: BLI (BLItz), biotinylated ligand on sensor, antibody in solution
tocilizumab [2] = assay: BLItz biolayer interferometry; biotinylated ligand immobilized on the chip, tocilizumab at 41.34, 82.68 and 165.3 nM in PBS (+0.1% BSA); same fitted value in all three rows of the table [C]

Sequence of tocilizumab (VH, as listed by the source, chain 1 of 2): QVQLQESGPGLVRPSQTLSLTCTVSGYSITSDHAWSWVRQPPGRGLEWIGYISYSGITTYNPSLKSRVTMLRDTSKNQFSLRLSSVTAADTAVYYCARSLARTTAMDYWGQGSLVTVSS
Sequence of tocilizumab (VL, as listed by the source, chain 2 of 2): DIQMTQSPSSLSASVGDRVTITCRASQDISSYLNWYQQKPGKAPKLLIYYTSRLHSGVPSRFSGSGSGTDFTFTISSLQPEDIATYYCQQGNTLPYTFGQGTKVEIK

Kd (tocilizumab [1]): 8.11 nM
koff (tocilizumab [2]): 0.00281 s⁻¹
kon (tocilizumab [2]): 346000 M⁻¹ s⁻¹
Substance: ligand of MabSelect SuRe

Reference: US20220213140A1
